Experimental data reported in publication PMC9191892.

What was measured:
[1] = molecular target: ribosomes (80S monosomes and polysomes) (S. cerevisiae (endogenous in BY4741)); assay: co-sedimentation; formaldehyde-crosslinked cell extracts (unstressed or H2O2-treated) on 15-50% sucrose gradients, SW41 Ti 2.5 hr at 278,000 x g, 4°C; fractions western blotted
[2] = molecular target: ribosomes (80S monosomes and polysomes) (S. cerevisiae (endogenous in BY4741)); assay: co-sedimentation; polysomal proteomics: formaldehyde-crosslinked extracts (unstressed, H2O2, 3-AT) on 15-50% sucrose gradients, fractions F1-F5 against totals by label-free MS; percent ribosome association estimated from the fraction sum to total ratio

B1: Aat2-TAP (cytosolic aspartate aminotransferase with a C-terminal TAP tag) (enzyme)
chain: MSATLFNNIELLPPDALFGIKQRYGQDQRATKVDLGIGAYRDDNGKPWVLPSVKAAEKLIHNDSSYNHEYLGITGLPSLTSNAAKIIFGTQSDAFQEDRVISVQSLSGTGALHISAKFFSKFFPDKLVYLSKPTWANHMAIFENQGLKTATYPYWANETKSLDLNGFLNAIQKAPEGSIFVLHSCAHNPTGLDPTSEQWVQIVDAIASKNHIALFDTAYQGFATGDLDKDAYAVRLGVEKLSTVSPVFVCQSFAKNAGMYGERVGCFHLALTKQAQNKTIKPAVTSQLAKIIRSEVSNPPAYGAKIVAKLLETPELTEQWHKDMVTMSSRITKMRHALRDHLVKLGTPGNWDHIVNQCGMFSFTGLTPQMVKRLEETHAVYLVASGRASIAGLNQGNVEYVAKAIDEVVRFYTIEAKL
Q: B1 was tested. Which percent in ribosomal fractions [1] did it give?
A: Its percent in ribosomal fractions is 10%.

Q: What about the percent ribosome associated (H2O2-treated extract) [1] of the same binder?
A: Its percent ribosome associated (H2O2-treated extract) is 13%.

B2: Aat2 (cytosolic aspartate aminotransferase), untagged (enzyme)
chain: B1 chain
Q: For B2, which percent ribosome associated (H2O2-treated extract) [2] is on record?
A: Its percent ribosome associated (H2O2-treated extract) is 9%.
